# T1: human TROP2-his protein (human, UniProt P09758 27-274)
# T1 construct: Biotin-labelled in the ELISAs, unlabelled analyte in Biacore; also called biotin-labeled human TROP2-his protein; biotin human Trop2-his
# T1 sequence: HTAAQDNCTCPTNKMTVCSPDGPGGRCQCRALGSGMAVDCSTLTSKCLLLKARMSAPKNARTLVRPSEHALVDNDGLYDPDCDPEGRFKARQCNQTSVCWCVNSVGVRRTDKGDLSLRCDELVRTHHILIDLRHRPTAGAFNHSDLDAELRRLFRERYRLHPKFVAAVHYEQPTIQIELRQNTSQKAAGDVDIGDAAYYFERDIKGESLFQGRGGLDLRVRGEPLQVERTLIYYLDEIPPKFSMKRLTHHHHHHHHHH
# T2: cynomolgus TROP2-his protein (cynomolgus monkey, UniProt P09758 27-272 (human entry), limits assumed)
# T2 construct: no cleavage site is stated; also called Cynomolgus monkey TROP2-his protein; monkey TROP2
# T2 chain: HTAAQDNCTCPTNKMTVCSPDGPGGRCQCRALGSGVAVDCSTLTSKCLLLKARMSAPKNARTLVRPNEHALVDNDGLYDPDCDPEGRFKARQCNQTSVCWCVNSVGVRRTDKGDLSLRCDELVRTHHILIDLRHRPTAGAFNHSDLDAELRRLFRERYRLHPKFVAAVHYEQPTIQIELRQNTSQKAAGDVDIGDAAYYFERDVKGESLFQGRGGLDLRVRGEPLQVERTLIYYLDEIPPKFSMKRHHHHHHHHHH
# Key:
# human TROP2-his protein [1] = biological target: T1, human TROP2-his protein; assay: capture ELISA, antibody captured on anti-human IgG Fc coat, biotin human TROP2-his in solution, OD(450-630)
# Method: (§1) Plates were washed once with wash buffer (PBS+0.05% v/v Tween-20, PBST) and then blocked with 200 μl/well blocking buffer (5% w/v non-fatty milk in PBST) for 2 hours at 37° C. […] Plates containing captured anti-TROP2 antibodies were incubated with biotin-labeled human TROP2-his protein (prepared in house, SEQ ID NO: 67, 56.7 ng/mL in 2.5% w/v non-fatty milk in PBST, 100 μl/well) for 40 minutes at 37° C., washed 4 times, and incubated with streptavidin conjugated HRP (1:10000 dilution in PBST, Jackson Immuno Research, Cat #016-030-084, 100 μl/well) for 40 minutes at 37° C. After a final wash, plates were incubated with 100 μl/well ELISA substrate TMB (Innoreagents, Cat #TMB-S-002) at room temperature. The reaction was stopped in 3-10 minutes at room temperature with 50 μl/well 1M H₂SO₄, and the absorbance of each well was read on a microplate reader using dual wavelength mode with 450 nm for TMB and 630 nm as the reference wavelength. The OD (450-630) values were plotted against antibody concentration. Data was analyzed using Graphpad Prism software and EC₅₀ values were reported.
# (§2) For the capture ELISA, AffiniPure Goat Anti-Human IgG, Fcγ fragment specific (Jackson Immuno Research, Cat #109-005-098) was used instead of AffiniPure Goat Anti-Mouse IgG, Fcγ fragment specific, 100 μl/well.
# human TROP2-his protein [2] = biological target: T1, human TROP2-his protein; assay: competitive ELISA: BM1 coated at 1 ug/mL, antibody premixed with biotin human TROP2-his; blocked: binding of TROP2-his to coated BM1 (self-competition)
# Method: (§3) The mouse anti-TROP2 antibodies were tested for epitope binding in a competitive ELISA assay. […] ELISA plates were washed once with wash buffer (PBS+0.05% v/v Tween-20, PBST) and then blocked with 200 μl blocking buffer (5% w/v non-fatty milk in PBST) for 2 hours at 37° C. While blocking, the anti-TROP2 antibodies or controls were diluted with biotin labeled human TROP2-his protein (SEQ ID NO: 67, 34 ng/mL in 2.5% wA non-fatty milk in PBST), starting at 80 nM with a 5-fold serial dilution, and incubated at room temperature for 40 minutes. After plate washing for 4 times, the antibody/TROP2-his protein mixtures were added to the antibody coated plates, 100 μl per well. After incubation at 37° C. for 40 minutes, plates were washed 4 times again using wash buffer. Then the plates were added and incubated with 100 μl Peroxidase Streptavidin (1:10000 dilution in PBST buffer. Jackson Immunoresearch, Cat #016-030-084) for 40 minutes at 37° C. Plates were washed again using wash buffer. Finally, TMB was added and the reaction was stopped using 1M H₂SO₄. The absorbance of each well was read on a microplate reader using dual wavelength mode with 450 nm for TMB and 630 nm as the reference wavelength, and the OD (450-630) values were plotted against antibody concentration. Data was analyzed using Graphpad Prism software and IC₅₀ values were reported.
# human TROP2-his protein [3] = biological target: T1, human TROP2-his protein; assay: capture ELISA, antibody captured on anti-human IgG Fc coat, biotin human TROP2-his in solution, OD(450-630); remark: listed apart in the source
# Method: as §1, §2
# human TROP2-his protein [4] = biological target: T1, human TROP2-his protein; assay: SPR Biacore, antibody captured on anti-human IgG CM5 chip, TROP2-his analyte
# Method: Un-reacted moieties on the chip (biosensor) surface were blocked with ethanolamine. […] The antigen-antibody association kinetics was followed for 2 minutes and the dissociation kinetics was followed for 10 minutes. The association and dissociation curves were fit to a 1:1 Langmuir binding model using BIAcore evaluation software.
# human TROP2-his protein [5] = biological target: T1, human TROP2-his protein; assay: capture ELISA, captured antibody, biotin human TROP2-his in solution, OD(450-630)
# Method: as §1
# human TROP2-his protein [6] = biological target: T1, human TROP2-his protein; assay: competitive ELISA: mouse A1E11A12D1 coated at 2 ug/mL, antibody premixed with biotin human TROP2-his; blocked: binding of TROP2-his to coated A1E11A12D1; no lower plateau reached at 80 nM
# Method: as §3
# human TROP2-his protein [7] = biological target: T1, human TROP2-his protein; assay: capture ELISA, captured antibody, biotin human TROP2-his in solution, OD(450-630); remark: listed apart in the source
# human TROP2-his protein [8] = biological target: T1, human TROP2-his protein; assay: SPR Biacore, antibody captured on chip, TROP2-his analyte
# [9] = biological target: T2, cynomolgus TROP2-his protein; assay: as above
binder,measurement,setting,value
"benchmark (in house prepared sacituzumab) (antibody, human IgG1, kappa, V domains shown, also called BM; BM1) VH: SVQLQQSGSELKKPGASVKVSCKASGYTFTNYGMNWVKQAPGQGLKWMGWINTYTGEPTYTDDFKGRFAFSLDTSVSTAYLQISSLKADDTAVYFCARGGFGSSYWYFDVWGQGSLVTVSS VL: DIQLTQSPSSLSASVGDRVSITCKASQDVSIAVAWYQQKPGKAPKLLIYSASYRYTGVPDRFSGSGSGTDFTLTISSLQPEDFAVYYCQQHYITPLTFGAGTKVEIKR",EC50,human TROP2-his protein [1],0.27 nM
same,IC50,human TROP2-his protein [2],1.28 nM
same,EC50,human TROP2-his protein [3],0.357 nM
same,Kd,human TROP2-his protein [4],0.385 nM
same,EC50,human TROP2-his protein [5],0.487 nM
"mouse antibody A1H3C5H8E12 (antibody, V domains shown, Mouse monoclonal IgG purified from hybridoma supernatant) VH: QVQLQQSGAELVRPGTSVKMSCKAAGYTFTNYWIDWVKQRPGHGLEWIGNIFPGGFYTNYNEKFKGKATLTADTSSSTAYMQLSSLTSEDSAIYYCARGGVFDYWGQGTTLTVSS VL: DILLTQSPAILSVSPGERVSFSCRASQSIGTSIHWYQQRTNGSPRLLIKYASESISGIPSRFSGSGSGTDFTLSINSVESEDIADYYCQQSNSWPYTFGGGTKLEIK",IC50,human TROP2-his protein [6],9.92 nM
"mouse antibody A1E4F7D4 (antibody, V domains shown, Mouse monoclonal IgG purified from hybridoma supernatant; also called Mouse A1E4F7D4) VH: QVQLQQSGAELAKPGTSVKMSCEASGYSFTTHWIHWMKQRPGQGLEWIGTIFPSNAYAVYNQKFRDRAIMTADRSSTTAYIQLTGLTSEDSAVYYCARASYFDYWGQGTTLTVSS VL: DILLTQSPATLSVSPGERVTFSCRASQNIGTSIHWFQQRTTGSPRLLIKYASESISGIPSRFSGSGSGTDFTLHINSVESEDIAHYYCQHSHSWPFTFGSGTKLEIQ",EC50,human TROP2-his protein [7],0.147 nM
same,Kd,human TROP2-his protein [8],0.0554 nM
same,koff,human TROP2-his protein [8],4.7e-05 s⁻¹
same,kon,human TROP2-his protein [8],849000 M⁻¹ s⁻¹
same,Kd,[9],0.0489 nM
same,koff,[9],4.54e-05 s⁻¹
same,kon,[9],930000 M⁻¹ s⁻¹
